# Experimental data: the DeepSol protein solubility set
# Experiment: soluble on expression in E. coli; label from the status in PepcDB or PDB records
row,Sequence,soluble on expression in E. coli
1,MVRIDAKGLHYKKLNDLIWEAVENGEEEIVLDNVCGQRYIGAGIRKKVKIEINGVPGNDLGVFMDGPEIIVNGNAQDGVGNTMNAGKIVVHGHAGDIIGYAMRGGHIYIKRNAGYRVGIHMKAYKENYPVVVIGGFARDFLGEYMAGGLLIVLGLEKDEDGNIAGNYVGTGMHGGEIFLRGTVEEHKLGKEVKIFQPTEEDINRIKPYVEEFCRLFDYDSEEILNEEFIILKPYTHRPYGRLYAY,not soluble
2,MAHHHHHHMGTLEAQTQGPGSMSVRVAINGFGRIGRNILRAIIESGRQDIEVVALNDLGSVETNAHLLRYDSVHGCFPGTVQVVGDAIDIGSSLIKVFAERDPAQLPWKALDIDIALECTGIFTARDKASAHLDAGAKRVLVSAPSEGADLTVVYGVNHQFLSKEHHVISNASCTTNCLAPVAQVLHNTVGIEKGFMTTIHSYTGDQPVLDTMHRDLYRARAAALSMIPTSTGAAKAVGLVLPELKGLLDGVSIRVPTPNVSVVDLTFTAKRSTTIEEINTAIRTAAQGSLKGILDYTDEKLVSCDFNHNPHSAIFHNDQTKVIDGQLCRVLVWYDNEWGFSNRMCDTAVAFAKTI,soluble
3,MREIINKLNPIIIDKADKKFGVSRILKKYDGKPVYIKDVNGFEVVGNLCSRETLSKIFNVKKEDFIFFMLDAMEKEKEGKLKINNKLKEKYIVEIPENIKNWPIPIYYEKDAGAYITSGVVVVYDKDYGYNLSIHRILVKDDYLVIRMVEQRHLHFLYNKALKEKGYLDVAIVIGVHPAVLLAGSTSADITFDELKFAAALLGGEIGVFELDNGLLVPEAEFIIEGKILPEVDDEGPFVDITGTYDIVRKQPIIKIEKLYRKEKPIFHALLPGGIEHKTLMGMPQEPRILKGVRNTVPTVKNIVLTEGGCCWLHAVVQIEKRTEGDGKNAILAAFASHPSLKHVIVVDDDINIFDINDVEYAIATRVQGDKDIVIISGAKGSSLDPSSDLKNKLTAKVGVDATMSLIKGREHFERAKIPDKLEHHHHHH,soluble
4,AHHHHHHGSFPHEEKLIREKLGREPNDLEKAMLEVMWSEHVSYKSSRKWLKLLPTKNEHVILGPGEDAGIIKFDDKTWIVIGIESHNHPSAVEPYGGAATGVGGIVRDILCMGARPIALLDPIRFGPLEKEKNRYLFEYVVKGIADYGNRIGVPTVGGETEFDESLDNYTLVNVACIGIMRPEHLVHSYVTEPGLKLVIVGNRTGRDGIHGVTFASEELGENAEEEDRSAVQIPDPFTEKLLIEATLEAVYTGKVKALKDLGGGGLTCAASEMVGKRGFGAIIYADKVPLREPGMTPLEVMISESQERMLFAIKPEDVEELGKIFEKYELEWSVVGEVIEEPKFIVYWKGRKVAELPIELLTNVPTIEWPMKEYRIEEDVETPQISLEEAFEKVWRSPNVISKRWVWEQYDHEVQGRTVIKPGFDSAVLKINEEYGLAITADGNPTHCYLNPYHGAMGVVVEVVRNLVSVGAKPLALVDNLNFASPERPEVYWSFVETIKGLADAAKAFGLAYVSGNVSFYNEVVNKPVKPTPVVAGVGKVKLEKIPRGPREGDLIGLIGETRKELGGSELYRVLGVSKGIAPRVDLEVEKRNAESVLKLIEEGLVSFVHDVSRGGVAVALAELSTWFNVGIKSEITTSLLPLDFAFSESHGRYIVTFPEENLEAVKKIAPITLLGRIGGEKFELKINGEKVSKTVKWLSDVHWNELYRIMD,not soluble
5,MVKSIENVKLTKGLFYNSQKKGNDVILALDIDRLLAPYYEAANLPPKKRSYGGWEEREIRGHSLGHWLSAAAAMYETTGDKALLERIDRAVQELATIQDDVGYVGGVKRAHFDEMFSGEFQVGHFNIAGTWVPWYNLHKLFAGLIDVHQLTGHSLALTVVTKLADWAKKGTDQLTDDQFQRMLICEHGGMNEAMADLYTLTGHKDYLQLAIRFCHWAVLEPLANGIDELEGKHANTQIPKVIGAAKLFEITGDDTYRAIAEFFWRQVTNDRSYIIGGNSNSEHFGPANKETLGVETAETCNTYNMLKLTEHLFRWNRSSQLMDYYEKALYNHILASQDPDSGMKTYFVSLQPGHFKVYSSLEESFWCCFGTGLENPARYTRTIYDRDDRHIYVNLFMASEIHLKDLQVQIRQETNFPETDRTKLTFVKADGVSIKLHIRVPEWVAGPVTARINGKETFSESGADYLTIEREWQKGDEIEVHLPMELRIYEAKDDSHKVGIMYGPIVLAGTFGKDHFPETDIVPNHLSLHNHPLIDVPTLVATKKTPDQWIHPVEGRSLTFRTAAIGQPGNVQITLIPFYALHHERYTVYWNLMSEVEYEAFKARKEVESDQLQARTVDAVQPGEQQPEVEHQLKANHSETGYLNIMQKRWRDSRGEDGFFSYVMKVKPNQQMSLFVTYYGGDHGLFVDGKWCDRSFRILIDDEVIKEEQLLGKNPGETLDVYYPIPLALTEGKEEVVVTFASKEGTVAGGVYGVRMLCNLEHHHHHH,soluble
6,GSVSMSGGFLRDDHLEFALHLHRRLAEAVPDGEVIWSPYSVACALGVLAAGARATTRTELTTLLGTDPAPLLAALDRAVTDSPDLASRTVLWVSADVPVRSSFRATMHDRPDSDVRTADFRTNPEGVRATVNADIADATRGMIRELLPQGAVTPDLRAILTNALWAKARWTTPFEAHLTRAGTFRTPRGPKRVPFMHRTKTMPYATARGWRMVTLHAHDELAVDVLLPPGTNAAAVPTAPLLTALHRRSASTSVELALPRFELTQPHQLVEVLAEAGVRTLFTASADLSGISTVPLYVDTVIHQARLRVDERGAEGAAATAAMMLLAGAMPPRRTIRFSVDRPFHIVVRRRGAILFLGSIADPHDPGPAQ,soluble
7,MNTMLNPHYQQIWQTVQLIPQGKVACYGQIADLAGLPGRARLVGKSLGKVPKDGWRGQRVPWFRVINSQGKISFPPGSENFDKQKHHLQDEQVVVIGSRIKLKEFQWKPDLSELLFSLEFLEHHHHHH,not soluble
8,MNWVTHKPTFEFDNFSPFIRANTAWLGHLEFAYDLVRFEKPEILVELGTHMGASFFSFCQGVKDGGLATKCFAVDTWTGDGHTGPYGEGVFHIVDKVVKTSYPNIGNLIKSTFDEAVDQFQDGTINLLHIDGYHTYEAVSHDYKTWLPKLADNGIVLFHDIEVKDRNFGVYKFWDEVKAKYPHFQFQHSYGLGVLFPKGCSDRFKEILKNKEEIQDMYKLEHHHHHH,soluble
9,MAHHHHHHMDRQVINLEEILPFSYTRDVELVPMYCFEVKKEVAKDALNIMKDYINNQLYDKYNHLKRCRKCTDSVQILIGACNHIPFELSQKLIEKMKQENNNDEFNDIIITKIMVSKYAPITRKQYIEWSTYWPLYFRKPDKDILILTKEEINKYIKLLYISIDIGKQFGTCNSGCIITYNDEIIASSGDNIKNHPLHHAPMLAIEQVSYKLRHIWLNKQTEKNNLQKKMKIIHKQQINNRDSLNDHKHENNKSNHNILIDHIPNDQYLCTNFFAFLSHEPCYMCAMALLHSRIKCVIFDKENKNNGALSSQEKLHCIKNLNHHFKVFKTIRG,not soluble
10,MGSDKIHHHHHHMESAKDITGRIFNIQKYSIYDGDGVRTLIFMKGCNIRCPWCANPEGIRRAYQILFSPDKCLHCGKCAEACPRGIHTLIADEYGSRFHHIDRTVQCTGCRKCEAACPSNALDIVGKDMTVAELMAVIMQDYSFYQSSGGGVTLSGGEVSLQTDFAVALLQACKQKMINTAVETQGTTSISHYDQLAAVTDMFLFDIKHIDTNQHKALFGIGNENIRRNLEHLVELGANIVIRMPLVRGYNDSYDAIMGAIHYVQKLAKRGNVRRIDILPYHQLGRKKYERLGMIYPIKADPSYNEEELNRLDAFFDEFDFDIRLVRH,not soluble
11,MGSDKIHHHHHHMMAKLVVCIIDGMADPPPPAGGVTPLAAAHTPHCDTLARHSVAGLCHVIQPEAVPGSEAGLSALLCCEAAASIARGPVEALAQGDPVAPHETVWRLNLVSLGPRGNYYNPAPLLDAATETAARKMLDRALGTQGYSLLGGKGFRHLCAGTEPPVLRDGPQDVCGMTPDTGQADLNSYCPRLARAMTEANVLFRRSRMDLAVWPWGAGTMPDLPGFAETTGQTGALAGGVPLARGLALALGMTAPSIAGATGGIDTDLGAKTRAAIALAAGHDVVYLHVEAPDLHAHALDRVAKRRAIERIDAEVVGPLHMALPDATLLITCDHATDCATGRHMAIPVPFILHKPDGPQDGIATFSEAASARTGIRIDSAATLVRLALAD,not soluble
12,MAHHHHHHMKKQIKWKAHKGVVLCADWSRMSGMIVTGGEDGVYKVWDPYGCSIFVAAAGEHPITSVRFAADGESFAVGSFMNVRVCDKTGWSHSYERTTEGSAMALDWMPDGTQMILGNGTGALSIAQIVDRKVSWGPYTVTLLDSRRLTVQDVVKDTVQEIELADKVIKLELGCGYLVVCTTTQCCCYPMDRLNAPVQFDLRDPVISIILGPRQFLLADCSQGLQVYSYEGRQISVLRLQVTLKPEIMTTNLLSLSPETVAMRNPADAKRILFFDVSSGKPFDAASVAHHLDIVSVHLSQSGSLHDRKIAFIDRNNDLYFGPVHTQLGFHKLSTMTTSVAWHDSHETLVAIADGHLATWYYPSTIFTDRDLLSLTKTVRDGGHTEFTRNDRITHFHHTRVLVRRGGDGALLTLPVSPYTVMIFQLVTQKNNWDGATRLARFLKDPLLWAVLTALALRAGELNVAEIGYGALSDLAKVRYIHYIKGIPTPEARQAELALFQHRPAEAERILLQAGLVYRCIDMNTRLFKWERALEIAKERKTHLDTVLGRRERYLQEVSQKEMLAPFKDLSGKVKVDWAVIEEKVKQEVIKESERPNAKPYA,not soluble
13,GMKQPNYYQDVKQFHQTFHHPGADQPTAIPLDRGVKRATWTAEEAVVEFLHQSSQNETEFLAAIETFKAGLDQAVKKSLKETYPVTEVERLVGQGDALTDALYFIMGSFVEAGLEPGPLFEIVQQANMAKLGPDGQPIFRESDQKVMKPDGWLPPEPQLEAEVVRQMKEKA,soluble
14,HTDPGDVVIEELFNRIPETSVWNENERVLSNANHLVSTALWRNEQSFRVESELGERPRTLVRGPVLRDDGSYICLEATDQETGEPLEVHVPYFTERPPSNAIKQLSEQVLRLRLLRGIKNQRQAKAYLRFIFPIDLVKDPKKRKMIRVRLDERDMWVLSRFFLYPRMQSNLHILGDVLLSHSSTHKSLVHHARLQLTLQLIRLAASLQHYGLVHADFQVRNILLDQRGGVFLTGFEHLVRDGASAVSPIGRGFAPPETTAERMLPYRQHHPTLMTFPFDTWTLGLAIYWIWCADLPNTEDAELGGIEWIYRRCKNIPQPVRALLEGFLRYSKEDRLLPLQAMETSEYEQLRTELSAVLPLYQTDGEPA,soluble
15,MVLGKPQTDPTLEWFLSHCHIHKYPSKSTLIHQGEKAETLYYIVKGSVAVLIKDEEGKEMILSYLNQGDFIGELGLFEEGQERSAWVRAKTACEVAEISYKKFRQLIQVNPDILMRLSAQMARRLQVTSEKVGNLAFLLVTGRIAQTLLNLAKQPDAMTHPDGMQIKITRQEIGQIVGCSRETVGRILKMLEDQNLISAHGKTIVVYGTR,soluble
16,MGSDKIHHHHHHMQKNITSLSGLNWDDLKFFLEVARTRKVSSAARRLAVDYTTVSRRINSLETSLGTLLFEKSRNNGFIMTAEGQRLLGYAESIESTLHMACEQVSGSSVALSGHIRMGCTEGFGSFFITPQLSHFLDNYPSISVDILPLPHFISLSKREADIVIALERPEHGPYVCCKLCDYSLRLYATQEYLDNHAPIQRKADLSEHVFISYVDDLAFSSELLYLSNLLPNAQAQLRSTSVIAQYTAALQGRALAILPCFLAAQDPRLLPVLTEEVNITRQFWMYCREDLRKLKRITLLWDYIREVTELNKGFLLGENRAARFV,not soluble
